Columns and labels:
Assay in all cases: split reporter
[1] = target: T1, Kre5p (S. cerevisiae, UniProt P22023 18-1365)
T1 sequence: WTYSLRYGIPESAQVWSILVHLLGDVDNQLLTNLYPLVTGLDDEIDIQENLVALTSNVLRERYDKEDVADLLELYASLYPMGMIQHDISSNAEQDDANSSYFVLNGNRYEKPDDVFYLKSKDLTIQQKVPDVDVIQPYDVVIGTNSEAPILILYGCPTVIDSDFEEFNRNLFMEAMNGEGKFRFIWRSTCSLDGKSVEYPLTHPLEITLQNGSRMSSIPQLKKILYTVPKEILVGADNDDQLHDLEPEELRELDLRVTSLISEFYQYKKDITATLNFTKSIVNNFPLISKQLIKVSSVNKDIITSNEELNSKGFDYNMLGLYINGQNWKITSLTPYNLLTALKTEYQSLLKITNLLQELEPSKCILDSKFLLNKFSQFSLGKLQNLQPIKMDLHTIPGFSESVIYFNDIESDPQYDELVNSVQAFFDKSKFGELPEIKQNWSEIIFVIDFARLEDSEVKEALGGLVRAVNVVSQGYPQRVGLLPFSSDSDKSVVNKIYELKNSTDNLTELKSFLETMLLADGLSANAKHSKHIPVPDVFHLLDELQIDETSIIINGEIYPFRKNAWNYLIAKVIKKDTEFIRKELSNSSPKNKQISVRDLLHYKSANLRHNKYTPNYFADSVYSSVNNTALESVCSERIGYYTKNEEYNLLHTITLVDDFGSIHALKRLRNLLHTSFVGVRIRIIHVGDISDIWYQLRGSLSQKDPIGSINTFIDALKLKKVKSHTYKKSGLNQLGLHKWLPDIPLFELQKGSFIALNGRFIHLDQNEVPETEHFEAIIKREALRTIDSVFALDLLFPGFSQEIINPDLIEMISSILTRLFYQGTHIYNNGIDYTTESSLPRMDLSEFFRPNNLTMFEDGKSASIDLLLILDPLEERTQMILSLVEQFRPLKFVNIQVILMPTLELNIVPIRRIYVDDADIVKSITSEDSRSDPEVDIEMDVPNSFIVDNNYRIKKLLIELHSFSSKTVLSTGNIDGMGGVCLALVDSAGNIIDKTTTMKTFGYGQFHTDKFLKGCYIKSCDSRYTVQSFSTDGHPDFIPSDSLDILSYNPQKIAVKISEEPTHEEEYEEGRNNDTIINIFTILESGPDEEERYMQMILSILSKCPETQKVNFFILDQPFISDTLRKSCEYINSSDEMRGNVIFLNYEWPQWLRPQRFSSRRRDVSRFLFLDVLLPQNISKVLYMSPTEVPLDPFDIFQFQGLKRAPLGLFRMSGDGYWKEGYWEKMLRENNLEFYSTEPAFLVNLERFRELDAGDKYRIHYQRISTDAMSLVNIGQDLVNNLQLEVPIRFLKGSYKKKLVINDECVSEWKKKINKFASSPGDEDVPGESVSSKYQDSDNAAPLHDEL

[2] = target: T2, Mpd2p (S. cerevisiae, UniProt Q99316 23-277)
T2 sequence: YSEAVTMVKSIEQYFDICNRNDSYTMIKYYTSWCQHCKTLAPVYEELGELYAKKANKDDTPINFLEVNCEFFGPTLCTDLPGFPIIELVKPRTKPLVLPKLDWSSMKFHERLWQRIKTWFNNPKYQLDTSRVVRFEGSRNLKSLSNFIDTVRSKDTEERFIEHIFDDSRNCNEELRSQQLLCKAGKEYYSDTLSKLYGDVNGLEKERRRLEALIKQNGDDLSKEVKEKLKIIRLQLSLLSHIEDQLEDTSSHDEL

[3] = target: T3, Pdi1p (S. cerevisiae, UniProt P17967 29-522)
T3 sequence: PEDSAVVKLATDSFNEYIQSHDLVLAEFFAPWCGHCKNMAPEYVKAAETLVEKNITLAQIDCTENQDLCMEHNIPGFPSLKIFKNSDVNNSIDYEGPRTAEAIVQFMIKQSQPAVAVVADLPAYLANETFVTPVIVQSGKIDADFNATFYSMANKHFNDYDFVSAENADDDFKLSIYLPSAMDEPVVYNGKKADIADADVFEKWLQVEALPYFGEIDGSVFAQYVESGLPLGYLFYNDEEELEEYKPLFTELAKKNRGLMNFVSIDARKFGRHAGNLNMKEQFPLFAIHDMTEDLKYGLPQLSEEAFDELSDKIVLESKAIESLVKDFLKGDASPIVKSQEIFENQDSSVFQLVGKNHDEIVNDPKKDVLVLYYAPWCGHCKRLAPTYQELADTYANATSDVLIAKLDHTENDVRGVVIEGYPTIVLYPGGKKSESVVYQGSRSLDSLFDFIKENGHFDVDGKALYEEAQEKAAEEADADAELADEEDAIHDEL

[4] = target: Cpr5p (S. cerevisiae, UniProt P35176 23-225)
Chain of Cpr5p (P35176 23-225): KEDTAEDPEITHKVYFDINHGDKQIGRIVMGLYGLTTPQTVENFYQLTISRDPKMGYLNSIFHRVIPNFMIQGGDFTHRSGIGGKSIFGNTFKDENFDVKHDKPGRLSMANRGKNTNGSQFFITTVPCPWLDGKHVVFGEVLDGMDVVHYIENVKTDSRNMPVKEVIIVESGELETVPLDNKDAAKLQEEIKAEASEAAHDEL

Measured: normalized interacting score

B1: Lhs1p (natural protein)
chain: AVLGVDYGQQNIKAIVVSPQAPLELVLTPEAKRKEISGLSIKRLPGYGKDDPNGIERIYGSAVGSLATRFPQNTLLHLKPLLGKSLEDETTVTLYSKQHPGLEMVSTNRSTIAFLVDNVEYPLEELVAMNVQEIANRANSLLKDRDARTEDFVNKMSFTIPDFFDQHQRKALLDASSITTGIEETYLVSEGMSVAVNFVLKQRQFPPGEQQHYIVYDMGSGSIKASMFSILQPEDTTQPVTIEFEGYGYNPHLGGAKFTMDIGSLIENKFLETHPAIRTDELHANPKALAKINQAAEKAKLILSANSEASINIESLINDIDFRTSITRQEFEEFIADSLLDIVKPINDAVTKQFGGYGTNLPEINGVILAGGSSRIPIVQDQLIKLVSEEKVLRNVNADESAVNGVVMRGIKLSNSFKTKPLNVVDRSVNTYSFKLSNESELYDVFTRGSAYPNKTSILTNTTDSIPNNFTIDLFENGKLFETITVNSGAIKNSYSSDKCSSGVAYNITFDLSSDRLFSIQEVNCICQSENDIGNSKQIKNKGSRLAFTSEDVEIKRLSPSERSRLHEHIKLLDKQDKERFQFQENLNVLESNLYDARNLLMDDEVMQNGPKSQVEELSEMVKVYLDWLEDASFDTDPEDIVSRIREIGILKKKIELYMDSAKEPLNSQQFKGMLEEGHKLLQAIETHKNTVEEFLSQFETEFADTIDNVREEFKKIKQPAYVSKALSTWEETLTSFKNSISEIEKFLAKNLFGEDLREHLFEIKLQFDMYRTKLEEKLRLIKSGDESRLNEIKKLHLRNFRLQKRKEEKLKRKLEQEKSRNNNETESTVINSADDKTTIVNDKTTESNPSSEEDILHDEL
> 40%: all assays above

From publication doi:10.1101/2024.05.21.594841 (bioRxiv, 2024)
